The data set can be described thus: label from the status in PepcDB records.

Turning to “MNEIILITGAYGMVGQNTALYFKKNKPDVTLLTPKKSELCLLDKDNVQAYLKEYKPTGIIHCAGRVGGIVANMNDLSTYMVENLLMGLYLFSSALDSGVKKAINLASSCAYPKFAPNPLKESDLLNGSLEPTNEGYALAKLSVMKYCEYVSAEKGVFYKTLVPCNLYGEFDKFEEKIAHMIPGLIARMHTAKLKNEKEFAMWGDGTARREYLNAKDLARFISLAYENIASIPSVMNVGSGVDYSIEEYYEKVAQVLDYKGVFVKDLSKPVGMQQKLMDISKQRALKWELEIPLEQGIKEAYEYYLKLLEV”, the protein production entry is recorded as “failed”. The result for “MNEIYDREQMIKLLDLAKNTEMELPINLAIGLGLRISEVLGLTWDNIDFEENTITVNKITSRINGSVILKEPKTESSVRKISSPKELMSLLKEYKIKQNKNLLKSSIRNNNNLLFFNKKCEPIAEDVMSKKFKRFLEKNELPHIRFHDLRHSHVTLLINSKVPIKVISERVGHSNISTTLSVYSHVLKEMDKEASDKISESLFNANLEHHHHHH” reads “not failed”; that for “MNEKKEQALFEYDAKLSISEAIPMGLQHVVAAVVGIVTPGIMIAKVCQLSPSDTTILIQTSLIFSAVATLIQLFPIFGKVGSRLPVMMGASFAYVPILMAIGADFGIAAIFGSQLVGSILVIIVGLFIKKIRVLFPPLVTGTVILSIGLSLFPVAIKYMAGGAGSADFGSARNWLVALLTFAIVFYFNYFAKGFLKLSAILNGMVIGYLISLALGMVSFEPVQNAKIVQVITPFHFGLDFQLVPIFTLVVMFIVDAVQAIGQFTATTVGAMDRDATDEELSGGIMGSGFTNFIGSLFGSIPVATFGQNVGLVTVTKVINKYVLVFASVILLIAGFVPKVAALLTTIPYAVIGGATISVFASISMTGIRMIASQEMTPRNTGVVGTALAFGIGVTLSTGSLAGFPTWVTTIFGNSEVILTTLVAVLLNVILKPKKRVALE”, “not failed”; that for “MNELTQSDNYQLLNRELAAPDPWGLDANPFERERHTQMLRLALAQGSISSALEVGCAAGAFTVQLAPHCKRLTVIDVVPQAIERSRRRIRGSPHISWIVSDVQQFSPDERFDLIVVAEVLYYIGGIAEMRGAVRNLVRMLAPDGYLVFGSARDANCRRWGHVAGAETILGMLNETLLEVERLECRGESVNEDCLLACFRNPFSAS”, “failed”. In the case of “MNENDKEYQASLKSLETENIIDRKFYRPIGFYFAKLLSRTRVTPNMVTILSIFVGLGGGLCFVHTPYDLRWAVAGILCMVVANIMDCIDGQLARLTGIKSEIGRILDGIAGDIWFACIYICFIIRLTAEYPDALGSMTTGILIAVGLLSGISHLVQAAVTDYYKTLHLFFISPEKGKEFERSTSIRRRVKAMPHGVNRLFSSLYYYYTLIQERATPRLQRLLDQLEADYPQNTIPETLRQHLRKDSRRIMNIVDFLTFNGRTIPLFLIVLSGHIWLYFVFEILILNTVLVLGIRRHEAMCRHHLKERR” it was “failed”. For “MNEQIPHDKSLDNSLTLLKEGYLFIKNRTERYNSDLFQARLLGKNFICMTGAEAAKVFYDTDRFQRQNALPKRVQKSLFGVNAIQGMDGSAHIHRKMLFLSLMTPPHQKRLAELMTEEWKAAVTRWEKADEVVLFEEAKEILCRVACYWAGVPLKETEVKERADDFIDMVDAFGAVGPRHWKGRRARPRAEEWIEVMIEDARAGLLKTTSGTALHEMAFHTQEDGSQLDSRMAAIELINVLRPIVAISYFLVFSALALHEHPKYKEWLRSGNSREREMFVQEVRRYYPFGPFLGALVKKDFVWNNCEFKKGTSVLLDLYGTNHDPRLWDHPDEFRPERFAEREENLFDMIPQGGGHAEKGHRCPGEGITIEVMKASLDFLVHQIEYDVPEQSLHYSLARMPSLPESGFVMSGIRRKS”, the protein production entry was “not failed”. For the sequence “MNEQPAACRIKVEALGAGFAPAAEQWAERLGLALQVDEAEFALQVGEQGLQLQQLGPDAPGPVRVDFVEGGAAHRRLYGGGSGQMIAKAVGVAQGVRPRVLDATAGLGKDGFVLATLGCEMSLIERQPLIGALLEDGLARAAQDAEVGPIVARMHLLKGNSIELMRNWQGEPPQVIYLDPMFPHREKSALVKKEMRLFRPLVGDDNDAPALLAAALALASHRVVVKRPRKAPCIEGPKPSHGLEGKSSRYDIYPKKALKALEHHHHHH”, the protein production result is recorded as “failed”. Consider “MNERPATIEELICAAEARLRADPTQVKTVIEDLAHLEAQGYPAGPATVLIFDGNARVMSGDFAGARPVLEKGLALSTELEEPTLQVRALTGLAVLHVGTGAYGQALEYHMQSMQLARTLENGGLLSRSLIYVGSLYAALRNFEQAQAYHREAVEHAASAGRSTFMARLALATDEAQLGHLEEALQQRRELLVEARQTASRAEEAFVLADLAANLLQLDQRAEARQLASEALKRAEALGLQLEKGQALIILASLDIREGQFESAHQALHEVLEIGQRLASIQLLIPVHEELSRLFEQQGDFAGALRHTRVHYELKSSELTRLAERRSQVLEAELKVELLRQQAEEKERQNLALVAINEHLRETQKRLQYAATHDALTGLLVRTALEETVEDDLLLSPERRRALFMIDVDHFKQINDALGHHVGDRFLQELARRLRGALRPTDIVARQGGDEFTIYLRELDSPEEAVALGQQLLRDIAAPVQVEGHLLNVTVSIGIAVYPDDGRDVMTLEKHADLALYRAKEQRHQVCRFQKPAD”, for which the protein production entry is reported as “failed”. The result for “MNESPKEGAGGAPDYDVWEAEVKSSRGLPLVWLIPLVALGIGIWLAYRTLSEEGPTITLLFKEAPGLEAGKSKIKFKDVEIGTVESVVLNEDLTGVVVTAKMEKHVATHLGENTAFWVVKPELGLGGVSGLDTLMAGNYIAVEFGGGKVVRRFVGLERPPRIKADTPGRSFFLSADNAGPLKYGTPVYFRDIEVGQVVNVGLAEDNRSVQVEIFIDAPYHRLVHNSTRFWQVSGIDLSLSAQGVNLKVGSIMSLLQGGITFETPTLNDPKVQSSEPNTRFRLHKDFASIAEGTYTLRQPYLLFFDDSVRGLNVGAPVELKGIRVGTVTELKLALDFGAHKIRIPVVIEIDPERLIPYGAEEIIERAKKEYKAAMEAGRRPFMEKLVERGLRARLRTGNLLTGQLYVDLDFYPESPPKSLDYSGQYPELPTLPSVADELQRNVTEIIANLKKIPLDKIGQELLGTVQGSNRLLNSPELKGAVGSLNLALKDLRHLAQTADREMVTLTSAAEKSLSSTARVLEQLEPGSAMAVDISNALEELAASARSIRALTDYLERHPEALLHGKGGSGGKP” reads “failed”. Turning to “MNESVDTDEATTPLVSAIIPTYGRNERLSSAIQSVLEQTYDNIELFVVDDASPTPVRETLDSFDPTVENSFRILRHDENQGANAARNTGIRASDGRYVAFLDDDDQWDETKITKQVQAFQESDSETGVVYTGVRKDGPEGTTVSTPVASGDVMKDLLTGTNFGQFSSVMVDTTVIETAGLPDERLPAWQDREWFFRLAQHTHFRPVRETLTYRQTGLPGSITKKYEQKRDVAYPMLISKHDWVAAEYGIYYERMFKATMRRSLARSAVRADRYKEARKYFLLSALANPLYWPVYPHLFASLGGKWSYESIASLRQQVTNGPASGTLEHHHHHH”, the protein production result is given as “failed”. In the case of “MNEYDEECLLTFLKKQSQLFDEPVAETMEEAEAFLEDCMAVVVDSLDEVREYFEESGADVENMLEHHHHHH”, the protein production entry is “not failed”. “MNFDLYMNGVVEQARNEIESAGYEQLTTAEDVDKVLKQDGTTLVMINSVCGCAGGIARPAASHALHYDVLPDRLVTVFAGQDKEATQRAREYFEGYAPSSPSFALVKDGKITEMIERHQIEGHDVMNVINQLQTLFNKYC”: the protein production result is on record as “not failed”. The result for “MNFDTIIIGGGMAGLSCALRCLEAGLKTAVIASGQSALHFSSGSIDVLAKTPSGKHVINPMDSLETFSKEYPSHPYAALGKETVERAINWYKTTLSAIGVPLTSQKDGLNHYRLTPLGTMKSTWLSQPFVHQFPMDLEKNKTQKMVLITIDGFRDFQPKLAQDNLKQITQLSDLEIATASISLSAFNDIQRNHCELRSIDISRLLSKRANRQELAYALQQHANPGDLVVLPSIFGNGTGLSYLREIEQLTKLTLCEVPTMPPSLLGIRLEESMKHAFIELGGTMLNGDHVVQGEFSYVDKSDPEHSHYRLNRLFTKNHGDFPLQAKQFVLATGSFFSQGLKANVDSMIEPIFGLDIAQSDKRTDWYSHDFFSTQSHPFLSMGIKTTANFQAIKSGHVIDNLYCAGAILSGYNPILEGSGSGVAISSGFHAAESIIEQLQCSDSLQNNNTKAEVAL” reads “failed”; that for “MNFIRIVKFDFKNIIRNPMLLFFNTIFPLILIGSIGFVMKNGYGSFNVTSYDYYGVTMMIFTAFIICITASNTFMEKSVKKGNTRIVYAPVSKAEIYLSKIISTYILGSIFYSIIIVLGKYVLNINYGTRSTIYIIILINMLTLFGCCLGVLFCCIFKSEEGANSVLQIVIMLFIFFGGVFFPVYSLGKIVESISNLSPLKWITECIFRIIYDNDFSIYLPTIGVMLVSSIICIVICQIIFKPEEYV”, “failed”; that for “MNFKESRAIYLQIADRICDDILLGQYEEEGRIPSVREYASIVEVNANTVMRSYEYLQSQEVIYNKRGIGFFVASGAKMLIHSLRKEQFLKEEVGSFFRQLYTLGISIKEIEKMYYEFIQRQNQ”, “not failed”. In the case of “MNFLNENEKKITLIPPPEFVQYVGGHFEEVGKEFMQYFIEIGNLKSNETVLDVGCGIGRMAVPLMNYLSDDGTYYGFDLFNKGITWCKNNISTRRNNFHFEHVDIYNQFYNPDGKEDASQYKFPYEDESFDFIFLTSVFTHLLPKELEHYVREIARVLKKDGRCFITFFLINPESSYYLNAGLSPLGFYHQIDNCYVLNKDIPNFAVAYPEEDIRTLLNKYGLEMQTPPHYGSWCGRTEHTSYQDIILAQKISER” it was “failed”. Consider “MNFWEVVLIVVNFSLLSWILLIGRETKKWSKLATLIAVVMVTVQLLAEGFRWQMIPAYVSPVILILCYLLAGRKKGFRSSGIFIVKTSLLCIYLSVAVALPLLMPVFSFEEPTGPHRVGTKLYHWVDHQRNEPYSKNPNDRRELMVQIWYPAAEKSKGDPEPYIRNINELSKGLEKTLSIPAFAFSHMELVKSHSFMDLQLSDSENHYPILLFSHGFNGFRNQNTFQVEELASQGYIVLSIDHTFDAAATVFPGGRTAYVQPINLTDEGDSHIKLWEEDVSFVLNQIEKLNENDETGFFTGRLDTSRIGMFGHSYGGATAAQILAKDSRVKAAINMDGTLYGEILPESGIGKPFLLMNAEEPDEADPFEVRERYGRGLAGGGMSMVIPHTDHTSFTDLHLFSPLLQSPGENPKEVHRIINEFSLAFFDQYVKQKDDGSTLKRLITQYPEVNFKINR”, for which the protein production result was “failed”. In the case of “MNGIHDVGGMDGFGKVMYVKEEEDIYFTHDWERLALGLVAGCMAQGLGMKAFDEFRIGIELMRPVDYLTSSYYGHWIATVAYNLVDTGVLDEKELDERTEVFSKKPDTKIPRREDPALVKLVEKALNDGLSPLREISASPRFKVGERIKTKNIHPTGHTRFPRYARDKYGVIDEVYGAHVFPDDAAHRKGENPQYLYRVRFEAEELWGYKQKDSVYIDLWESYMEPVSH”, the protein production entry is listed as “not failed”. “MNGVLEQHWTGEGRRLRAAPAVLCLLLGTALAGCGDMNRFQTAAAPPTVAMPKPKPAVAQTPATEKEHERILASYGGTYDDPRLESLVTKTVDRLVAASDRPDQGYRITILNSGAVNAFALPNGQLYVTRGLLALASDTSELSSVLSHEMAHVLSKHAAMREDQARQAAIVTRVVTDMSNDPDLTALALAKTKLTMASFSRNQEFEADGIGVGISARAHFDPYGAARFLSAMERNAELKAGKTSLDPRAQDFTSSHPATPERVQNAQTIARQYVAPEGGERDRESYLAAIDNLVYGEDPERGFCPRPAFPASEARLHLPGAGQFHARQHRAGGDRRARRRLAGDALRRGAGAGRAVARRLPQFGLDGRRREGVHGRHHHQRLPGRVRHRQGRPVAVQGLCAAFRQRRLPLHLRGTAEVDRERAQCARDRQLVPSPDPRRDPGRPPAAHQGDHRAARRHRGIALPPHGRRRSPRRALPRAQRPRSQRAGEGEGSREGRGGLTLREARVIPGRLARTRDLEPRRHCRRVGKA”: the protein production entry was “failed”.
